According to article PMC6211539, “Structures of collagen IV globular domains: insight into associated pathologies, folding and network assembly” (IUCrJ, 2018):
Several values for one entry are separate records, joined by “and”; a condition that tells them apart may be missing. Identical values can stand only once.

B2: noncollagenous C-terminal domain (NC1) of the collagen IV α2 chain, recombinant, from insect cells (domain or fragment, human)
chain: SVSIGYLLVKHSQTDQEPMCPVGMNKLWSGYSLLYFEGQEKAHNQDLGLAGSCLARFSTMPFLYCNPGDVCYYASRNDKSYWLSTTAPLPMMPVAEDEIKPYISRCSVCEAPAIAIAVHSQDVSIPHCPAGWRSLWIGYSFLMHTAAGDEGGGQSLVSPGSCLEDFRATPFIECNGGRGTCHYYANKYSFWLTTIPEQSFQGSPSADTLKAGLIRTHISRCQVCMKNL
notes: collagen IV α2 chain, human, NC1 domain; The construct has an N-terminal BM40 secretion peptide followed by the FLAG tag; Used for the α121NC1 crystals (expressed in insect cells); also called α2NC1; α2(IV)NC1
B3: noncollagenous C-terminal domain (NC1) of the collagen IV α1 chain, recombinant (domain or fragment, human)
chain: SVDHGFLVTRHSQTIDDPQCPSGTKILYHGYSLLYVQGNERAHGQDLGTAGSCLRKFSTMPFLFCNINNVCNFASRNDYSYWLSTPEPMPMSMAPITGENIRPFISRCAVCEAPAMVMAVHSQTIQIPPCPSGWSSLWIGYSFVMHTSAGAEGSGQALASPGSCLEEFRSAPFIECHGRGTCNYYANAYSFWLATIERSEMFKKPTPSTLKAGELRTHVSRCQVCMRRT
notes: collagen IV α1 chain, human, NC1 domain (about 230 C-terminal residues); The construct has an N-terminal BM40 secretion peptide followed by the FLAG tag; also called α1NC1; α1(IV)NC1

Columns and labels:
[1] = biological target: noncollagenous C-terminal domain (NC1) of the collagen IV α4 chain, recombinant (human) (UniProt P53420); test: crystal structure; α4NC1 alone; sitting drop, 21°C; protein in 50 mM Tris-HCl pH 7.4, 0.15 M NaCl; 6% PEG 3350, 0.2 M Na acetate, 0.1 M MES pH 6.5
[2] = biological target: noncollagenous C-terminal domain (NC1) of the collagen IV α3 chain, recombinant (human) (UniProt Q01955); test: SPR; Biacore T100; α3NC1 or α5NC1 amine-coupled to CM5 chip (~1000 RU); α3NC1 or α5NC1 flowed over; 25°C; 10 mM Tris-HCl pH 7.4, 0.15 M NaCl, 3 mM EDTA, 0.005% surfactant P20; self-association
[3] = biological target: noncollagenous C-terminal domain (NC1) of the collagen IV α3 chain, recombinant (human) (UniProt Q01955); test: crystal structure; α3NC1 alone; sitting drop, 21°C; protein in 50 mM Tris-HCl pH 7.4, 0.5 M NaCl; 16% PEG 3350, 0.2 M MgCl2, 0.1 M bis-tris propane pH 7.5
[4] = biological target: the molecule itself; test: crystal structure; crystals from a 1:1:1 mixture of α3NC1, α4NC1 and α5NC1; sitting drop, 21°C; protein in 50 mM Tris-HCl pH 7.4, 0.15 M NaCl; 20% PEG 8000, 0.2 M NaCl, 0.1 M CAPS pH 10.5
[5] = biological target: the molecule itself; test: SPR; Biacore T100; α3NC1 or α5NC1 amine-coupled to CM5 chip (~1000 RU); α3NC1 or α5NC1 flowed over; 25°C; 10 mM Tris-HCl pH 7.4, 0.15 M NaCl, 3 mM EDTA, 0.005% surfactant P20; self-association
[6] = biological target: B3; test: crystal structure; 2:1 mixture (in terms of mass) of α1NC1 and α2NC1; sitting drop, 21°C; protein in 50 mM Tris-HCl pH 7.4, 0.15 M NaCl; 10% PEG 8000, 0.2 M Mg acetate; conditions: both partners purified
[7] = biological target: B2; test: as above; conditions: both partners purified
[8] = biological target: the molecule itself; test: crystal structure; α1NC1 alone; sitting drop, 21°C; protein in 50 mM Tris-HCl pH 7.4, 0.15 M NaCl; 1.4 M Li2SO4, 0.1 M MES pH 6.5
[9] = biological target: the molecule itself; test: crystal structure; α2NC1 (from HEK293 cells) alone; sitting drop, 21°C; protein in 50 mM Tris-HCl pH 7.4, 0.15 M NaCl; 22% polyvinylpyrrolidone K15, 0.1 M Na2SO4, 0.1 M MES pH 6.5

noncollagenous C-terminal domain (NC1) of the collagen IV α4 chain, recombinant (from UniProt P53420 1461-1690) (domain or fragment)
stoichiometry N [1]: 12 subunits

noncollagenous C-terminal domain (NC1) of the collagen IV α3 chain, recombinant (from UniProt Q01955 1441-1670) (domain or fragment)
Kd [2]: 1.71 µM | stoichiometry N [3]: 6 subunits

B1: noncollagenous C-terminal domain (NC1) of the collagen IV α5 chain, recombinant (domain or fragment, human)
chain: SVAHGFLITRHSQTTDAPQCPQGTLQVYEGFSLLYVQGNKRAHGQDLGTAGSCLRRFSTMPFMFCNINNVCNFASRNDYSYWLSTPEPMPMSMQPLKGQSIQPFISRCAVCEAPAVVIAVHSQTIQIPHCPQGWDSLWIGYSFMMHTSAGAEGSGQALASPGSCLEEFRSAPFIECHGRGTCNYYANSYSFWLATVDVSDMFSKPQSETLKAGDLRTRISRCQVCMKRT
notes: collagen IV α5 chain, human, NC1 domain; The construct has an N-terminal BM40 secretion peptide followed by the FLAG tag; also called α5NC1; α5(IV)NC1
stoichiometry N [4]: 6 subunits | Kd [5]: 4.92 µM

B2
binding result [6]: binds

B3
stoichiometry N [7]: 2 α1NC1 per α2NC1 | stoichiometry N [8]: 6 subunits

B4: noncollagenous C-terminal domain (NC1) of the collagen IV α2 chain, recombinant, from HEK293 cells (domain or fragment, human)
chain: SVSIGYLLVKHSQTDQEPMCPVGMNKLWSGYSLLYFEGQEKAHNQDLGLAGSCLARFSTMPFLYCNPGDVCYYASRNDKSYWLSTTAPLPMMPVAEDEIKPYISRCSVCEAPAIAIAVHSQDVSIPHCPAGWRSLWIGYSFLMHTAAGDEGGGQSLVSPGSCLEDFRATPFIECNGGRGTCHYYANKYSFWLTTIPEQSFQGSPSADTLKAGLIRTHISRCQVCMKNL
notes: collagen IV α2 chain, human, NC1 domain; N-terminally FLAG-tagged fusion protein; Used for the α2NC1 crystals; also called α2NC1; α2NC1_(homo); source: HEK293 cells, purified as described elsewhere (Sado et al., 1998)
stoichiometry N [9]: 8 subunits and 4 subunits
